# Measurements: paper PMC10786891, “Massively parallel profiling of RNA-targeting CRISPR-Cas13d”
# T1: EsCas13d, nuclease-dead (Eubacterium siraeum, UniProt B0MS50, R295A;H300A;R849A;H854A)
# T1 sequence: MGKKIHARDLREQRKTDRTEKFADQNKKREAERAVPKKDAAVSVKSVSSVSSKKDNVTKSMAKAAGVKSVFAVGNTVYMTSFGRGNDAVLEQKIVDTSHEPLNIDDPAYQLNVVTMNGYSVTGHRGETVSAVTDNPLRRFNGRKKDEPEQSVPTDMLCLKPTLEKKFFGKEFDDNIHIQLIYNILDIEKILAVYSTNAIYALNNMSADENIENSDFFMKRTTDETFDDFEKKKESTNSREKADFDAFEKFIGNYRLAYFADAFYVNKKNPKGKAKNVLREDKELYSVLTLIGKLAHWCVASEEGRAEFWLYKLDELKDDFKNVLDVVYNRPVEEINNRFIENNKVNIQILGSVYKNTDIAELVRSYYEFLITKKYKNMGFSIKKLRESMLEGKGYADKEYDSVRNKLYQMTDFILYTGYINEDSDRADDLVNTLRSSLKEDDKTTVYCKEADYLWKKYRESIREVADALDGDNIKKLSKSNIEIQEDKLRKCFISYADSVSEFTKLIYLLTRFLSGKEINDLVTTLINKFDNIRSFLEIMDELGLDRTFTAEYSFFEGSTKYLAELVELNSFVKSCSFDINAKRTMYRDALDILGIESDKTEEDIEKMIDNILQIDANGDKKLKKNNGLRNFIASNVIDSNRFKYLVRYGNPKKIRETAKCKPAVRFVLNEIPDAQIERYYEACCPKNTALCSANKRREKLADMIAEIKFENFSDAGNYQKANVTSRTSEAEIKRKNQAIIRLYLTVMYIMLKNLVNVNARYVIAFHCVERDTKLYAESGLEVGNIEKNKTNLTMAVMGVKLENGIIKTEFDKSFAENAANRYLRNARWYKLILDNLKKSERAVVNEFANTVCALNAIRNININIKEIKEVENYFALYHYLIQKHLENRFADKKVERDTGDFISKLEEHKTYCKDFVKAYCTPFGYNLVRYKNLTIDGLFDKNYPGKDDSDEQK
# Target: T1, EsCas13d, nuclease-dead
# Assay: crRNA (strand 1, pre-loaded); Mg2+; 40 mM Tris-HCl pH 7.5, 150 mM NaCl, 6 mM MgCl2, 1 mM DTT, 0.1% Tween-20, 0.2 mg/ml BSA; 25 C; 10 min per concentration, then washed
# Conditions: tags: His6-TwinStrep-SUMO cleaved; N-terminal SNAP kept (SNAP-Surface 488); label: 3' end held by stalled T7 RNA polymerase
row,Binder,Kd [nM]
1,target 1 MT 5'PFS GUC 3'PFS UGC (mixed) RNA 1: CACCCGUGCAAAAAUGCAGGGGUCUAAAACUGAGCGGAUAACCUCUCUAUGG RNA 2: GGGAAUGGAUCCACAUCUACGAAUUCGUCCCAUAGAGAGGUUAUCCGCUCAUGCAGAUCGGAAGAGCACACGU,13.2 ± 2.95
2,"target 1 insU 3' of 22,insC 3' of 12 (mixed) RNA 1: CACCCGUGCAAAAAUGCAGGGGUCUAAAACUGAGCGGAUAACCUCUCUAUGG RNA 2: GGGAAUGGAUCCACAUCUACGAAUUCGUACUCAUAGAGAGGCUUAUCCGCUCACCGAGAUCGGAAGAGCACACGU",92 ± 34
3,"target 1 C2A,A14C (mixed) RNA 1: CACCCGUGCAAAAAUGCAGGGGUCUAAAACUGAGCGGAUAACCUCUCUAUGG RNA 2: GGGAAUGGAUCCACAUCUACGAAUUCGUACCAUAGAGCGGUUAUCCGCUAACCGAGAUCGGAAGAGCACACGU",48.7 ± 3.1
4,target 1 MT 5'PFS GUC 3'PFS UGA (mixed) RNA 1: CACCCGUGCAAAAAUGCAGGGGUCUAAAACUGAGCGGAUAACCUCUCUAUGG RNA 2: GGGAAUGGAUCCACAUCUACGAAUUCGUCCCAUAGAGAGGUUAUCCGCUCAUGAAGAUCGGAAGAGCACACGU,14.7 ± 3.4
5,target 1 MT 5'PFS GUC 3'PFS UGU (mixed) RNA 1: CACCCGUGCAAAAAUGCAGGGGUCUAAAACUGAGCGGAUAACCUCUCUAUGG RNA 2: GGGAAUGGAUCCACAUCUACGAAUUCGUCCCAUAGAGAGGUUAUCCGCUCAUGUAGAUCGGAAGAGCACACGU,21.5 ± 5
6,target 1 MT 5'PFS GGC 3'PFS CAC (mixed) RNA 1: CACCCGUGCAAAAAUGCAGGGGUCUAAAACUGAGCGGAUAACCUCUCUAUGG RNA 2: GGGAAUGGAUCCACAUCUACGAAUUCGGCCCAUAGAGAGGUUAUCCGCUCACACAGAUCGGAAGAGCACACGU,~17
7,target 1 MT 5'PFS GGC 3'PFS AAG (mixed) RNA 1: CACCCGUGCAAAAAUGCAGGGGUCUAAAACUGAGCGGAUAACCUCUCUAUGG RNA 2: GGGAAUGGAUCCACAUCUACGAAUUCGGCCCAUAGAGAGGUUAUCCGCUCAAAGAGAUCGGAAGAGCACACGU,36 ± 10
8,target 1 MT 5'PFS GAG 3'PFS AUU (mixed) RNA 1: CACCCGUGCAAAAAUGCAGGGGUCUAAAACUGAGCGGAUAACCUCUCUAUGG RNA 2: GGGAAUGGAUCCACAUCUACGAAUUCGAGCCAUAGAGAGGUUAUCCGCUCAAUUAGAUCGGAAGAGCACACGU,36 ± 11
9,target 1 MT 5'PFS UUU 3'PFS AUC (mixed) RNA 1: CACCCGUGCAAAAAUGCAGGGGUCUAAAACUGAGCGGAUAACCUCUCUAUGG RNA 2: GGGAAUGGAUCCACAUCUACGAAUUCUUUCCAUAGAGAGGUUAUCCGCUCAAUCAGAUCGGAAGAGCACACGU,55 ± 18
10,target 1 MT 5'PFS GAG 3'PFS AUC (mixed) RNA 1: CACCCGUGCAAAAAUGCAGGGGUCUAAAACUGAGCGGAUAACCUCUCUAUGG RNA 2: GGGAAUGGAUCCACAUCUACGAAUUCGAGCCAUAGAGAGGUUAUCCGCUCAAUCAGAUCGGAAGAGCACACGU,~60
11,target 1 MT 5'PFS GAG 3'PFS AUA (mixed) RNA 1: CACCCGUGCAAAAAUGCAGGGGUCUAAAACUGAGCGGAUAACCUCUCUAUGG RNA 2: GGGAAUGGAUCCACAUCUACGAAUUCGAGCCAUAGAGAGGUUAUCCGCUCAAUAAGAUCGGAAGAGCACACGU,34 ± 8.5
12,target 1 MT 5'PFS AUG 3'PFS CAC (mixed) RNA 1: CACCCGUGCAAAAAUGCAGGGGUCUAAAACUGAGCGGAUAACCUCUCUAUGG RNA 2: GGGAAUGGAUCCACAUCUACGAAUUCAUGCCAUAGAGAGGUUAUCCGCUCACACAGAUCGGAAGAGCACACGU,~29.5
13,target 1 MT 5'PFS GAC 3'PFS CCU (mixed) RNA 1: CACCCGUGCAAAAAUGCAGGGGUCUAAAACUGAGCGGAUAACCUCUCUAUGG RNA 2: GGGAAUGGAUCCACAUCUACGAAUUCGACCCAUAGAGAGGUUAUCCGCUCACCUAGAUCGGAAGAGCACACGU,~14
14,"target 1 insG 3' of 9,insU 3' of 1 (mixed) RNA 1: CACCCGUGCAAAAAUGCAGGGGUCUAAAACUGAGCGGAUAACCUCUCUAUGG RNA 2: GGGAAUGGAUCCACAUCUACGAAUUCGUACCAUAGAGAGGUUAGUCCGCUCAUCCGAGAUCGGAAGAGCACACGU",23.3 ± 3.4
15,target 1 MT 5'PFS GUG 3'PFS UGU (mixed) RNA 1: CACCCGUGCAAAAAUGCAGGGGUCUAAAACUGAGCGGAUAACCUCUCUAUGG RNA 2: GGGAAUGGAUCCACAUCUACGAAUUCGUGCCAUAGAGAGGUUAUCCGCUCAUGUAGAUCGGAAGAGCACACGU,27.1 ± 2.4
16,target 1 MT 5'PFS CCU 3'PFS ACC (mixed) RNA 1: CACCCGUGCAAAAAUGCAGGGGUCUAAAACUGAGCGGAUAACCUCUCUAUGG RNA 2: GGGAAUGGAUCCACAUCUACGAAUUCCCUCCAUAGAGAGGUUAUCCGCUCAACCAGAUCGGAAGAGCACACGU,~14
17,target 1 MT 5'PFS AGC 3'PFS AGG (mixed) RNA 1: CACCCGUGCAAAAAUGCAGGGGUCUAAAACUGAGCGGAUAACCUCUCUAUGG RNA 2: GGGAAUGGAUCCACAUCUACGAAUUCAGCCCAUAGAGAGGUUAUCCGCUCAAGGAGAUCGGAAGAGCACACGU,~60
18,target 1 MT 5'PFS GUG 3'PFS UGC (mixed) RNA 1: CACCCGUGCAAAAAUGCAGGGGUCUAAAACUGAGCGGAUAACCUCUCUAUGG RNA 2: GGGAAUGGAUCCACAUCUACGAAUUCGUGCCAUAGAGAGGUUAUCCGCUCAUGCAGAUCGGAAGAGCACACGU,9.4 ± 0.45
19,target 1 MT 5'PFS CCA 3'PFS AGU (mixed) RNA 1: CACCCGUGCAAAAAUGCAGGGGUCUAAAACUGAGCGGAUAACCUCUCUAUGG RNA 2: GGGAAUGGAUCCACAUCUACGAAUUCCCACCAUAGAGAGGUUAUCCGCUCAAGUAGAUCGGAAGAGCACACGU,14 ± 5.9
20,target 1 MT 5'PFS GUG 3'PFS UGA (mixed) RNA 1: CACCCGUGCAAAAAUGCAGGGGUCUAAAACUGAGCGGAUAACCUCUCUAUGG RNA 2: GGGAAUGGAUCCACAUCUACGAAUUCGUGCCAUAGAGAGGUUAUCCGCUCAUGAAGAUCGGAAGAGCACACGU,14.9 ± 1.15
21,target 1 MT 5'PFS GUG 3'PFS UGG (mixed) RNA 1: CACCCGUGCAAAAAUGCAGGGGUCUAAAACUGAGCGGAUAACCUCUCUAUGG RNA 2: GGGAAUGGAUCCACAUCUACGAAUUCGUGCCAUAGAGAGGUUAUCCGCUCAUGGAGAUCGGAAGAGCACACGU,110 ± 19.5
22,target 1 MT 5'PFS GUC 3'PFS CCU (mixed) RNA 1: CACCCGUGCAAAAAUGCAGGGGUCUAAAACUGAGCGGAUAACCUCUCUAUGG RNA 2: GGGAAUGGAUCCACAUCUACGAAUUCGUCCCAUAGAGAGGUUAUCCGCUCACCUAGAUCGGAAGAGCACACGU,15.3 ± 2.6
23,target 1 MT 5'PFS GCG 3'PFS AGA (mixed) RNA 1: CACCCGUGCAAAAAUGCAGGGGUCUAAAACUGAGCGGAUAACCUCUCUAUGG RNA 2: GGGAAUGGAUCCACAUCUACGAAUUCGCGCCAUAGAGAGGUUAUCCGCUCAAGAAGAUCGGAAGAGCACACGU,26.4 ± 4.8
24,target 1 MT 5'PFS GCG 3'PFS AGC (mixed) RNA 1: CACCCGUGCAAAAAUGCAGGGGUCUAAAACUGAGCGGAUAACCUCUCUAUGG RNA 2: GGGAAUGGAUCCACAUCUACGAAUUCGCGCCAUAGAGAGGUUAUCCGCUCAAGCAGAUCGGAAGAGCACACGU,37 ± 11
25,"target 1 C4G,G15A (mixed) RNA 1: CACCCGUGCAAAAAUGCAGGGGUCUAAAACUGAGCGGAUAACCUCUCUAUGG RNA 2: GGGAAUGGAUCCACAUCUACGAAUUCGUACCAUAGAAAGGUUAUCCGGUCACCGAGAUCGGAAGAGCACACGU",13.2 ± 1.2
26,target 1 MT 5'PFS GCG 3'PFS AGG (mixed) RNA 1: CACCCGUGCAAAAAUGCAGGGGUCUAAAACUGAGCGGAUAACCUCUCUAUGG RNA 2: GGGAAUGGAUCCACAUCUACGAAUUCGCGCCAUAGAGAGGUUAUCCGCUCAAGGAGAUCGGAAGAGCACACGU,100 ± 50
27,target 1 MT 5'PFS GUC 3'PFS CCA (mixed) RNA 1: CACCCGUGCAAAAAUGCAGGGGUCUAAAACUGAGCGGAUAACCUCUCUAUGG RNA 2: GGGAAUGGAUCCACAUCUACGAAUUCGUCCCAUAGAGAGGUUAUCCGCUCACCAAGAUCGGAAGAGCACACGU,~18
28,target 1 MT 5'PFS GUC 3'PFS CCC (mixed) RNA 1: CACCCGUGCAAAAAUGCAGGGGUCUAAAACUGAGCGGAUAACCUCUCUAUGG RNA 2: GGGAAUGGAUCCACAUCUACGAAUUCGUCCCAUAGAGAGGUUAUCCGCUCACCCAGAUCGGAAGAGCACACGU,19 ± 9
